Data: patent US20240189352A1 (published 2024)

What was measured:
Assay in all cases: cytokine release
[1] = biological target: T1, RAC2 P29L, position 1 replaced by alanine peptide on HLA-A*02:01 (human)
T1 peptide: ALGEYIPTV

[2] = biological target: T2, RAC2 P29L peptide on HLA-A*02:01 (human)
T2 peptide: FLGEYIPTV

[3] = biological target: T3, RAC2 P29L, position 2 replaced by alanine peptide on HLA-A*02:01 (human)
T3 peptide: FAGEYIPTV

[4] = biological target: T4, RAC1 P29S peptide on HLA-A*02:01 (human)
T4 peptide: FSGEYIPTV

[5] = biological target: T5, RAC2 P29L, position 3 replaced by alanine peptide on HLA-A*02:01 (human)
T5 peptide: FLAEYIPTV

[6] = biological target: T6, RAC2 P29L, position 6 replaced by alanine peptide on HLA-A*02:01 (human)
T6 peptide: FLGEYAPTV

[7] = biological target: T7, RAC2 P29L, position 4 replaced by alanine peptide on HLA-A*02:01 (human)
T7 peptide: FLGAYIPTV

Measured: binding result

B1: RAC2-T002 (TCR, V domains shown)
Valpha: AQSVTQLGSHVSVSEGALVLLRCNYSSSVPPYLFWYVQYPNQGLQLLLKYTTGATLVKGINGFEAEFKKSETSFHLTKPSAHMSDAAEYFCAVGANNLFFGTGTRLTVIP
Vbeta: EPEVTQTPSHQVTQMGQEVILRCVPISNHLYFYWYRQILGQKVEFLVSFYNNEISEKSEIFDDQFSVERPDGSNFTLKIRSTKLEDSAMYFCASSEWRGSSYNEQFFGPGTRLTVL
recognises: [1] | [2] | [3] | [4] | [5] | [6]

B2: RAC2-T001 (TCR, V domains shown)
Valpha: GENVEQHPSTLSVQEGDSAVIKCTYSDSASNYFPWYKQELGKGPQLIIDIRSNVGEKKDQRIAVTLNKTAKHFSLHITETQPEDSAVYFCAASMGNAGNMLTFGGGTRLMVKP
Vbeta: EPEVTQTPSHQVTQMGQEVILRCVPISNHLYFYWYRQILGQKVEFLVSFYNNEISEKSEIFDDQFSVERPDGSNFTLKIRSTKLEDSAMYFCASSETSGASYEQYFGPGTRLTVT
recognises: [1] | [2] | [3] | [4] | [5] | [7]
